Article PMC7387800

What was measured:
[1] = biological target: VqmA-FLAG (Vibrio cholerae)
[2] = biological target: VqmA-FLAG (Vibrio cholerae); test: non-reducing SDS-PAGE with anti-FLAG immunoblot (disulfide-linked dimer); cells treated 1 h with 25 μM DPO, in the presence or absence of O2; lysate boiled in SDS-PAGE buffer without BME
[3] = test system: 6xHis-VqmA C134A (Vibrio cholerae C6706?); test: EMSA
[4] = test system: 6xHis-VqmA WT (Vibrio cholerae C6706?); test: EMSA

Row | Substance | vqmR-lacZ reporter activity in ΔvqmA Δtdh V. cholerae carrying pvqmA-FLAG, with 25 μM DPO, with against without DTT [1] [fold] | percent of Holo-VqmA with the intermolecular C134-C134 disulfide bond [2] [%] | stoichiometry N [2] | binding signal (fold reduction vs DTT-treated P2) [3] | binding signal (fold more potent than diamide-treated P2) [4]
1 | VqmA-FLAG (natural protein) | 6 | 40 to 50 | 2 | – | –
2 | vqmR promoter DNA (PvqmR) | – | – | – | 4 | 2
